Drawing on US20220411475A1, this text covers higher stringency neutralization assay, complete neutralization, neutralization of HDV-HBV infection of HepaRG cells (intracellular HDV RNA) and Min binding conc. for two substances.

In assay [1] the target is HDV particles coated with HBV envelope proteins (L/M/S HBsAg/ay) (Hepatitis B virus genotype D, subtype ayw) (UniProt P03138). As to the kind of experiment: cell-based or functional assay.
In assay [2] the target is PreS1-WHc VLP-1.4+ (15-34) (Woodchuck hepatitis virus; Hepatitis B virus (ayw)). Put plainly: solid-phase ELISA, antigen on plate. On the technique in general: ELISA stands for enzyme-linked immunosorbent assay.
The target in assay [3] is combination of VLPs 1.6+1.9. As to the kind of experiment: solid-phase ELISA, antigen on plate.
Assay [4] has as its target PreS1-WHc VLP-1.1+ (19-43) (Woodchuck hepatitis virus; Hepatitis B virus (ayw)). Put plainly: solid-phase ELISA, antigen on plate.
Assay [5] has as its target recombinant (r) PreS1/PreS2 protein (Hepatitis B virus (ayw)) (UniProt P03138). As to the kind of experiment: solid-phase ELISA, antigen on plate.
Assay [6] deals with PreS1-WHc VLP-1.6 (15-40). As to the kind of experiment: solid-phase ELISA, antigen on plate.
Assay [7] has as its target PreS1-WHc VLP-1.9 (83-106-NH2/1-25-loop). Put plainly: solid-phase ELISA, antigen on plate.
The target in assay [8] is PreS1-WHc VLP-1.5 (1-34) (Woodchuck hepatitis virus; Hepatitis B virus (ayw)). As to the kind of experiment: solid-phase ELISA, antigen on plate.
The target of assay [9] is PreS1-WHc VLP-1.4 (15-31) (Woodchuck hepatitis virus; Hepatitis B virus (ayw)) (UniProt P0C6J2). As to the kind of experiment: solid-phase ELISA, antigen on plate.
For assay [10], the target named is PreS1 synthetic peptide p(18-25) (Hepatitis B virus (ayw)). As to the kind of experiment: solid-phase ELISA, antigen on plate.
The target in assay [11] is PreS1-WHc VLP-1.3+ (1-25) (Woodchuck hepatitis virus; Hepatitis B virus (ayw)). Put plainly: solid-phase ELISA, antigen on plate.
In assay [12] the target is PreS1 synthetic peptide p(1-36) (Hepatitis B virus (ayw)). As to the kind of experiment: solid-phase ELISA, antigen on plate.
For assay [13], the target named is myristoylated rPreS1/PreS2 protein (Hepatitis B virus (ayw)) (UniProt P03138). Put plainly: solid-phase ELISA, antigen on plate.
The target of assay [14] is purified HBV virions (Hepatitis B virus). As to the kind of experiment: solid-phase ELISA, antigen on plate.
In assay [15] the target is PreS1-WHc VLP-1.1 (21-43) (Woodchuck hepatitis virus; Hepatitis B virus (ayw)). As to the kind of experiment: solid-phase ELISA, antigen on plate.
Assay [16] concerns the target PreS1 synthetic peptide p(21-42) (Hepatitis B virus (ayw)). Put plainly: solid-phase ELISA, antigen on plate.

Take PreS1-specific Mab 18/7 (antibody): in assay [1], the higher stringency neutralization assay, complete neutralization is greater than 5 µg/mL. The neutralization of HDV-HBV infection of HepaRG cells (intracellular HDV RNA) in [1] is less than 0.05 µg/mL. Further, the Min binding conc. is 8 ng/mL in [2]; 0.3 ng/mL in assay [3]; 0.3 ng/mL in assay [4]; 0.3 ng/mL in [5]; 0.3 ng/mL in assay [6]; 1.6 ng/mL in assay [7]. The Min binding conc. turned out to be 0.3 ng/mL in assay [8]; 0.3 ng/mL in assay [9]; 8 ng/mL in [10]; 1.6 ng/mL in [11]; 1.6 ng/mL in assay [12]; 0.3 ng/mL in assay [13]. In [14], this substance came in with a Min binding conc. of 2 ng/mL.
Consider PreS1-specific Mab KR-127 (antibody), for which the Min binding conc. amounted to 8 ng/mL in assay [2]; 1.6 ng/mL in assay [15]; 1.6 ng/mL in [3]; 1000 ng/mL in assay [4]; 1.6 ng/mL in [5]; 1.6 ng/mL in assay [6]. Also, the Min binding conc. in assay [16] was determined as 1.6 ng/mL; in assay [12] it was 1.6 ng/mL; in assay [13] it was 1.6 ng/mL; in assay [14], 75 ng/mL.
